The target in test [1] is recombinant kinase domain of MKK7 (MKK7-KD), residues 101–405 (UniProt O14733). In words: other fluorescence titration; tryptophan fluorescence quenching at 334 nm; MKK7-KD at 1.25 µM in phosphate buffer pH 7.5, peptide 10 nM to 140 µM; fit log[inhibitor] vs. response, variable slope.
The target is the same in test [2]. In words: other fluorescence titration; FITC fluorescence quenching; FITC-labelled peptide at 10 nM titrated with soluble MKK7-KD 0-1000 nM; 96-well black plates, 200 µL, excitation 488 nm, emission at 517 nm; one-site total fit.

Sequence of UniProt O14733 (O14733 101-405): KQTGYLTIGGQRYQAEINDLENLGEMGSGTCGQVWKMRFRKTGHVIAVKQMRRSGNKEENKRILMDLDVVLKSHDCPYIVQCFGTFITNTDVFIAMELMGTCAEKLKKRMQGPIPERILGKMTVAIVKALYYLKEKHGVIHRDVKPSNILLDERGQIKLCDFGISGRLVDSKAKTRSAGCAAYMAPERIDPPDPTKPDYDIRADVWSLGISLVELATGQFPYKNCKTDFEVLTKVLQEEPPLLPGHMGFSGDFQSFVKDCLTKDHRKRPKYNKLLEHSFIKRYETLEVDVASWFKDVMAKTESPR

One may read the Kd as the equilibrium constant for the complex coming apart. Regarding “DTP3 (Ac-D-Tyr-D-Arg-D-Phe-NH2) (peptide)”, the dissociation constant (Kd) in test [1] was found to be 240 nM. With FITC-βAla2-DTP3 (peptide), the Kd in test [2] was 123 nM. As for “scramble (SCRB) peptide (Ac-D-Arg-D-Phe-D-Tyr-NH2)”, in test [1], the Kd was found to be 41000 nM and the Δ Fluorescence at 334 nm (at concentrations above 10 µM) was 4 units.
